From patent US20210246166A1 (Bayer, published 2021)
Numbered stars: 1 amine (or outer) side, 2 acyl side, 3 side chain; on linkers, the order of the positions; unused ones are H or OH. Bridge positions count the residues as written; N and C are the ends. Square brackets hold non-standard residues; d marks the D form. Ends that are not written are not given here. * marks the point of attachment. (S)‑4‑Piperazine‑2‑carboxylic acid = (S)-4-piperazine-2-carboxylic acid; 4‑Aminomethylphenylacetic acid = O=C(Cc1ccc(CN[*:1])cc1)[*:2]; NHCH2(1,3-C6H4)CH2CO = O=C(Cc1cccc(CN[*:1])c1)[*:2]; Piperidin‑4‑ylacetic acid = O=C(CC1CCNCC1)*; Oic = O=C(O)[C@@H]1C[C@@H]2CCCC[C@@H]2N1; PEG6 = NCCOCCOCCOCCOCCOCCOCCC(=O)O; tBuAla = CC(C)(C)C[C@H](N)C(=O)O; Pen = CC(C)(S)[C@H](N)C(=O)O; PEG3 = NCCOCCOCCOCCC(=O)O; Orn = NCCC[C@H](N)C(=O)O; Ahx = NCCCCCC(=O)O; Sar = CNCC(=O)O

T1: Recombinant human MASP1 enzyme (fragment corresponding to amino acids 297-699, C-terminal His Tag) (human, UniProt P48740 297-699)
T1 sequence: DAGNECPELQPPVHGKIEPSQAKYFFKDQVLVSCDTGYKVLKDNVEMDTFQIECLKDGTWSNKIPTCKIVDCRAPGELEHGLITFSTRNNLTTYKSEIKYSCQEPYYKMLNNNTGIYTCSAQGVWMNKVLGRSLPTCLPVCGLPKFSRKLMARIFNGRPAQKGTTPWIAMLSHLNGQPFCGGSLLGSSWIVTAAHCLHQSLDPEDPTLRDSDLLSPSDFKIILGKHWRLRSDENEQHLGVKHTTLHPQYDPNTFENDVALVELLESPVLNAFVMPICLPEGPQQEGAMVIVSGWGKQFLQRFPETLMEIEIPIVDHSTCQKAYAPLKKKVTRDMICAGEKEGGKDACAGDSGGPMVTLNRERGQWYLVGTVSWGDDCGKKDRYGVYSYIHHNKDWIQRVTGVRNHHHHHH

B1: ((N-Me)G)-IC+SRSLP-(Oic)-I-(Pen)+IPD-(Ahx)-OH (peptide)
peptide: [Sar]ICSRSLP[Oic]I[Pen]IPD[Ahx]-OH
modifications: disulfide 3-11; N-terminus assumed
SMILES: CC[C@H](C)[C@H](NC(=O)CNC)C(=O)N[C@H]1CSSC(C)(C)[C@@H](C(=O)N[C@H](C(=O)N2CCC[C@H]2C(=O)N[C@@H](CC(=O)O)C(=O)NCCCCCC(=O)O)[C@@H](C)CC)NC(=O)[C@H]([C@@H](C)CC)NC(=O)[C@@H]2C[C@@H]3CCCC[C@@H]3N2C(=O)[C@@H]2CCCN2C(=O)[C@H](CC(C)C)NC(=O)[C@H](CO)NC(=O)[C@H](CCCNC(=N)N)NC(=O)[C@H](CO)NC1=O
B2: ((N-Me)G)-IC+SRSLP-(Oic)-I-(Pen)+IPDD-OH (peptide)
peptide: [Sar]ICSRSLP[Oic]I[Pen]IPDD-OH
modifications: disulfide 3-11; N-terminus assumed
SMILES: CC[C@H](C)[C@H](NC(=O)CNC)C(=O)N[C@H]1CSSC(C)(C)[C@@H](C(=O)N[C@H](C(=O)N2CCC[C@H]2C(=O)N[C@@H](CC(=O)O)C(=O)N[C@@H](CC(=O)O)C(=O)O)[C@@H](C)CC)NC(=O)[C@H]([C@@H](C)CC)NC(=O)[C@@H]2C[C@@H]3CCCC[C@@H]3N2C(=O)[C@@H]2CCCN2C(=O)[C@H](CC(C)C)NC(=O)[C@H](CO)NC(=O)[C@H](CCCNC(=N)N)NC(=O)[C@H](CO)NC1=O
B3: ((N-Me)G)-IC+SRSLP-(Oic)-I-(Pen)+IP-(*Dap)-OH (peptide)
peptide: [Sar]ICSRSLP[Oic]I[Pen]IPX-OH
modifications: disulfide 3-11; not fully specified (residue 14); printed as ((N-Me)G)-IC+SRSLP-(Oic)-I-(Pen)+IP-(*Dap)-OH; also: C-terminal Dap joined through its 3-amino group
B4: ((N-Me)G)-IC+SRSLP-(Oic)-I-(Pen)+IP-(PEG2(13 atoms))-OH (peptide)
peptide: [Sar]ICSRSLP[Oic]I[Pen]IP[PEG3]-OH
modifications: disulfide 3-11; N-terminus assumed
SMILES: CC[C@H](C)[C@H](NC(=O)CNC)C(=O)N[C@H]1CSSC(C)(C)[C@@H](C(=O)N[C@H](C(=O)N2CCC[C@H]2C(=O)NCCOCCOCCOCCC(=O)O)[C@@H](C)CC)NC(=O)[C@H]([C@@H](C)CC)NC(=O)[C@@H]2C[C@@H]3CCCC[C@@H]3N2C(=O)[C@@H]2CCCN2C(=O)[C@H](CC(C)C)NC(=O)[C@H](CO)NC(=O)[C@H](CCCNC(=N)N)NC(=O)[C@H](CO)NC1=O
B5: (Orn)-IC+SRSLP-(Oic)-I-(Pen)+IPD-OH (peptide)
peptide: [Orn]ICSRSLP[Oic]I[Pen]IPD-OH
modifications: disulfide 3-11; N-terminus assumed
SMILES: CC[C@H](C)[C@H](NC(=O)[C@@H](N)CCCN)C(=O)N[C@H]1CSSC(C)(C)[C@@H](C(=O)N[C@H](C(=O)N2CCC[C@H]2C(=O)N[C@@H](CC(=O)O)C(=O)O)[C@@H](C)CC)NC(=O)[C@H]([C@@H](C)CC)NC(=O)[C@@H]2C[C@@H]3CCCC[C@@H]3N2C(=O)[C@@H]2CCCN2C(=O)[C@H](CC(C)C)NC(=O)[C@H](CO)NC(=O)[C@H](CCCNC(=N)N)NC(=O)[C@H](CO)NC1=O
B6: ((N-Me)G)-IC+SRSLP-(Oic)-I-(Pen)+IP-(PEG5(22 atoms))-OH (peptide)
peptide: [Sar]ICSRSLP[Oic]I[Pen]IP[PEG6]-OH
modifications: disulfide 3-11; N-terminus assumed
SMILES: CC[C@H](C)[C@H](NC(=O)CNC)C(=O)N[C@H]1CSSC(C)(C)[C@@H](C(=O)N[C@H](C(=O)N2CCC[C@H]2C(=O)NCCOCCOCCOCCOCCOCCOCCC(=O)O)[C@@H](C)CC)NC(=O)[C@H]([C@@H](C)CC)NC(=O)[C@@H]2C[C@@H]3CCCC[C@@H]3N2C(=O)[C@@H]2CCCN2C(=O)[C@H](CC(C)C)NC(=O)[C@H](CO)NC(=O)[C@H](CCCNC(=N)N)NC(=O)[C@H](CO)NC1=O
B7: (Piperidin-4-ylacetic acid)-IC+SRS-((tBu)A)-PPIC+IPD-OH (peptide)
peptide: {Piperidin‑4‑ylacetic acid}-ICSRS[tBuAla]PPICIPD-OH
modifications: disulfide 2-10
SMILES: CC[C@H](C)[C@H](NC(=O)CC1CCNCC1)C(=O)N[C@H]1CSSC[C@@H](C(=O)N[C@H](C(=O)N2CCC[C@H]2C(=O)N[C@@H](CC(=O)O)C(=O)O)[C@@H](C)CC)NC(=O)[C@H]([C@@H](C)CC)NC(=O)[C@@H]2CCCN2C(=O)[C@@H]2CCCN2C(=O)[C@H](CC(C)(C)C)NC(=O)[C@H](CO)NC(=O)[C@H](CCCNC(=N)N)NC(=O)[C@H](CO)NC1=O
B8: ((N-Me)G)-IC+SRSLP-(Oic)-I-(Pen)+IP-(4-Aminomethylphenylacetic acid)-OH (peptide)
peptide: [Sar]ICSRSLP[Oic]I[Pen]IP[4‑Aminomethylphenylacetic acid]-OH
modifications: disulfide 3-11; N-terminus assumed
SMILES: CC[C@H](C)[C@H](NC(=O)CNC)C(=O)N[C@H]1CSSC(C)(C)[C@@H](C(=O)N[C@H](C(=O)N2CCC[C@H]2C(=O)NCc2ccc(CC(=O)O)cc2)[C@@H](C)CC)NC(=O)[C@H]([C@@H](C)CC)NC(=O)[C@@H]2C[C@@H]3CCCC[C@@H]3N2C(=O)[C@@H]2CCCN2C(=O)[C@H](CC(C)C)NC(=O)[C@H](CO)NC(=O)[C@H](CCCNC(=N)N)NC(=O)[C@H](CO)NC1=O
B9: ((N-Me)G)-IC+SRSLP-(Oic)-I-(Pen)+IP-(3-Aminomethylphenylacetic acid)-OH (peptide)
peptide: [Sar]ICSRSLP[Oic]I[Pen]IP[NHCH2(1,3-C6H4)CH2CO]-OH
modifications: disulfide 3-11; N-terminus assumed
SMILES: CC[C@H](C)[C@H](NC(=O)CNC)C(=O)N[C@H]1CSSC(C)(C)[C@@H](C(=O)N[C@H](C(=O)N2CCC[C@H]2C(=O)NCc2cccc(CC(=O)O)c2)[C@@H](C)CC)NC(=O)[C@H]([C@@H](C)CC)NC(=O)[C@@H]2C[C@@H]3CCCC[C@@H]3N2C(=O)[C@@H]2CCCN2C(=O)[C@H](CC(C)C)NC(=O)[C@H](CO)NC(=O)[C@H](CCCNC(=N)N)NC(=O)[C@H](CO)NC1=O
B10: aIC+SRSLP-(Oic)-I-(Pen)-+IP-(3-Aminomethylphenylacetic acid)-OH (peptide)
peptide: [dA]ICSRSLP[Oic]I[Pen]IP[NHCH2(1,3-C6H4)CH2CO]-OH
modifications: disulfide 3-11; N-terminus assumed
SMILES: CC[C@H](C)[C@H](NC(=O)[C@@H](C)N)C(=O)N[C@H]1CSSC(C)(C)[C@@H](C(=O)N[C@H](C(=O)N2CCC[C@H]2C(=O)NCc2cccc(CC(=O)O)c2)[C@@H](C)CC)NC(=O)[C@H]([C@@H](C)CC)NC(=O)[C@@H]2C[C@@H]3CCCC[C@@H]3N2C(=O)[C@@H]2CCCN2C(=O)[C@H](CC(C)C)NC(=O)[C@H](CO)NC(=O)[C@H](CCCNC(=N)N)NC(=O)[C@H](CO)NC1=O

Molecular target: Recombinant human MASP2 enzyme (fragment corresponding to amino acids 297-686, C-terminal His Tag) (human, UniProt O00187 297-686)
Sequence (O00187 other isoform, or with tags, fused parts or gaps limits assumed): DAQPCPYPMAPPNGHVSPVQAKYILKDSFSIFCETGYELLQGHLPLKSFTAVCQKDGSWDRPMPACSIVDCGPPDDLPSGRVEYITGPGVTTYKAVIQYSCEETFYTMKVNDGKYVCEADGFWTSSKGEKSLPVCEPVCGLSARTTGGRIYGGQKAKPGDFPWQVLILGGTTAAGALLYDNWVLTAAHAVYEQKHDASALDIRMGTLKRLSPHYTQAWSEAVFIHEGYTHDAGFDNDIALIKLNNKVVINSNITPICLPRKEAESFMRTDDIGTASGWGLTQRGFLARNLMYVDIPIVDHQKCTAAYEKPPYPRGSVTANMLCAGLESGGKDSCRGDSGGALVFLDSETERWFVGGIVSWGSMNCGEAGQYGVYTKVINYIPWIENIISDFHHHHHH
Assay: cell-based or functional assay

Binder | human MASP2 IC50
B1 | 120 nM
B2 | 40 nM
B3 | 55 nM
B4 | 97 nM
B5 | 110 nM
[Sar]ICSRSLP[Oic]I[Pen]IP[PEG4‑CH2CO2H (15 atoms)]-OH (disulfide 3-11) [((N-Me)G)-IC+SRSLP-(Oic)-I-(Pen)+IP-(PEG4-CH2CO2H (15 atoms))-OH] | 58 nM
B6 | 51 nM
[Sar]ICSRSLP[Oic]I[Pen]I[(S)‑4‑Piperazine‑2‑carboxylic acid]-OH (disulfide 3-11) [((N-Me))-GIC+SRSLP-(Oic)-I-(Pen)+I-((S)-4-Piperazine-2-carboxylic acid)-OH] | 78 nM
B7 | 18 nM
B8 | 61 nM
B9 | 172 nM
B10 | 37 nM

Molecular target: T1, Recombinant human MASP1 enzyme …
Assay: cell-based or functional assay

Binder | human MASP1 IC50
B1 | 0.41 nM
B2 | 0.72 nM
B3 | 6.6 nM
B4 | 4.5 nM
B5 | 1.9 nM
[Sar]ICSRSLP[Oic]I[Pen]IP[PEG4‑CH2CO2H (15 atoms)]-OH (disulfide 3-11) [((N-Me)G)-IC+SRSLP-(Oic)-I-(Pen)+IP-(PEG4-CH2CO2H (15 atoms))-OH] | 1.8 nM
B6 | 4 nM
[Sar]ICSRSLP[Oic]I[Pen]I[(S)‑4‑Piperazine‑2‑carboxylic acid]-OH (disulfide 3-11) [((N-Me))-GIC+SRSLP-(Oic)-I-(Pen)+I-((S)-4-Piperazine-2-carboxylic acid)-OH] | 2.4 nM
B7 | 26 nM
B8 | 3.8 nM
B9 | 9.6 nM
B10 | 3.7 nM
